1 molecule from publication PMC5615036, “Crystal structure of an ASCH protein from Zymomonas mobilis and its ribonuclease activity specific for single-stranded RNA” can be followed below.

For this series, the target named is T1, ZmASCH wild-type (Zymomonas mobilis ZM4, UniProt Q5NP14 1-148).
T1 sequence: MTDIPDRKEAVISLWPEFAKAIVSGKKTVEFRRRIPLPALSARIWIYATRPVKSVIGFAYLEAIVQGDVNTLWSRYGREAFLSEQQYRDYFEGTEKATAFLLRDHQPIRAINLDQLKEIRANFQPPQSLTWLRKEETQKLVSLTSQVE
The series is described as follows: EMSA; 10 mM Mg2+; bound, not degraded; EMSA: 20 mM Tris-HCl pH 7.5, 10 mM Mg acetate, 300 mM KCl, 100 ng/uL BSA, 100 ng/uL heparin, 30 min at 310 K; nuclease assay: 20 mM Tris-HCl pH 8.0, 100 mM KCl, 100 ng/uL BSA, with or without 10 mM divalent metal, 310 K. To be noted: protein: recombinant; tags: N-terminal His6; label: 5'-32P; single strand. Background: Mobility shift assays separate free from complexed probe on a gel.

Take ATCAGCTCGTCACAACATTACTTCATCAAC (ssDNA) [ssDNA(30mer)]: the binding result is listed as “binds”.
